Measurements from publication PMC12554172 (2025).

B1: FLAG-tagged FBXO44 FBA domain (FBXO44^FBA) [human] / RGS2^5–16 peptide (RGS2 degron, Met^5–Met^16) [not stated] (parent complex)
chain 1: FYFLRSLHRNLLHNPCAEEGFEFWSLDVNGGDEWKVEDLSRDQRKEFPNDQVKKYFVTSYYTCLKSQVVDLKAEGYWEELMDTTRPDIEVKDWFAARPDCGSKYQLCVQLLSSAHAPLGTFQPDPATIQQKSDAKWREVSHTFSNYPPGVRYIWFQHGGVDTHYWAGWYGPRVTNSSITIGP
chain 2: MFLAVQHDCRPM

Variants of: B1
Assay: peptide microarray (PEPperPRINT), α-FLAG fluorescence; three independent experiments with three technical replicates each; parent: 100; read off a plot
A percent of parent of ~85 % Parent was found for chain 2 P11H in this work.
A percent of parent of ~85 % Parent was found for chain 2 P11V in this work.
A percent of parent of ~100 % Parent was found for chain 2 P11M in this work.
A percent of parent of ~110 % Parent was found for chain 2 P11W in this work.
A percent of parent of ~100 % Parent was found for chain 2 P11F in this work.
A percent of parent of ~88 % Parent was found for chain 2 P11I in this work.
A percent of parent of ~68 % Parent was found for chain 2 P11G in this work.
A percent of parent of ~260 % Parent was found for chain 2 P11R in this work.
A percent of parent of ~72 % Parent was found for chain 2 P11A in this work.
A percent of parent of ~100 % Parent was found for chain 2 P11S in this work.
A percent of parent of ~90 % Parent was found for chain 2 P11Q in this work.
A percent of parent of ~130 % Parent was found for chain 2 P11D in this work.
A percent of parent of ~110 % Parent was found for chain 2 P11Y in this work.
A percent of parent of ~88 % Parent was found for chain 2 P11E in this work.
A percent of parent of ~85 % Parent was found for chain 2 P11T in this work.
A percent of parent of ~150 % Parent was found for chain 2 P11K in this work.
A percent of parent of ~82 % Parent was found for chain 2 P11L in this work.
A percent of parent of ~85 % Parent was found for chain 2 P11N in this work.
A percent of parent of ~120 % Parent was found for chain 2 P11C in this work.

Variants of: B1
Assay: as above
Remark: another data set of the same source
A percent of parent of ~260 % Parent Peptide was found for chain 2 P11R in this work.
A percent of parent of ~150 % Parent Peptide was found for chain 2 P11K in this work.
A percent of parent of ~140 % Parent Peptide was found for chain 2 H7R in this work.
A percent of parent of ~200 % Parent Peptide was found for chain 2 M12R in this work.
A percent of parent of ~130 % Parent Peptide was found for chain 2 C9R in this work.
A percent of parent of ~280 % Parent Peptide was found for chain 2 D8R in this work.
A percent of parent of ~220 % Parent Peptide was found for chain 2 D8K in this work.

Variants of: B1
Assay: as above
Remark: another data set of the same source
A percent of parent of ~95 % Parent was found for chain 2 H7M in this work.
A percent of parent of ~100 % Parent was found for chain 2 H7D in this work.
A percent of parent of ~95 % Parent was found for chain 2 H7T in this work.
A percent of parent of ~110 % Parent was found for chain 2 H7Q in this work.
A percent of parent of ~100 % Parent was found for chain 2 H7S in this work.
A percent of parent of ~100 % Parent was found for chain 2 H7I in this work.
A percent of parent of ~90 % Parent was found for chain 2 H7G in this work.
A percent of parent of ~120 % Parent was found for chain 2 H7C in this work.
A percent of parent of ~120 % Parent was found for chain 2 H7K in this work.
A percent of parent of ~110 % Parent was found for chain 2 H7Y in this work.
A percent of parent of ~100 % Parent was found for chain 2 H7L in this work.
A percent of parent of ~100 % Parent was found for chain 2 H7N in this work.
A percent of parent of ~100 % Parent was found for chain 2 H7V in this work.
A percent of parent of ~140 % Parent was found for chain 2 H7R in this work.
A percent of parent of ~95 % Parent was found for chain 2 H7E in this work.
A percent of parent of ~95 % Parent was found for chain 2 H7A in this work.
A percent of parent of ~110 % Parent was found for chain 2 H7W in this work.
A percent of parent of ~110 % Parent was found for chain 2 H7P in this work.
A percent of parent of ~100 % Parent was found for chain 2 H7F in this work.

Variants of: B1
Assay: as above
Remark: another data set of the same source
A percent of parent of ~85 % Parent was found for chain 2 R10S in this work.
A percent of parent of ~75 % Parent was found for chain 2 R10H in this work.
A percent of parent of ~110 % Parent was found for chain 2 R10D in this work.
A percent of parent of ~78 % Parent was found for chain 2 R10G in this work.
A percent of parent of ~82 % Parent was found for chain 2 R10L in this work.
A percent of parent of ~88 % Parent was found for chain 2 R10M in this work.
A percent of parent of ~110 % Parent was found for chain 2 R10C in this work.
A percent of parent of ~85 % Parent was found for chain 2 R10V in this work.
A percent of parent of ~78 % Parent was found for chain 2 R10I in this work.
A percent of parent of ~80 % Parent was found for chain 2 R10T in this work.
A percent of parent of ~82 % Parent was found for chain 2 R10N in this work.
A percent of parent of ~80 % Parent was found for chain 2 R10K in this work.
A percent of parent of ~120 % Parent was found for chain 2 R10W in this work.
A percent of parent of ~95 % Parent was found for chain 2 R10F in this work.
A percent of parent of ~80 % Parent was found for chain 2 R10Q in this work.
A percent of parent of ~80 % Parent was found for chain 2 R10P in this work.
A percent of parent of ~120 % Parent was found for chain 2 R10Y in this work.
A percent of parent of ~110 % Parent was found for chain 2 R10E in this work.
A percent of parent of ~72 % Parent was found for chain 2 R10A in this work.

Variants of: B1
Assay: as above
Remark: another data set of the same source
A percent of parent of ~120 % Parent was found for chain 2 M12Y in this work.
A percent of parent of ~200 % Parent was found for chain 2 M12R in this work.
A percent of parent of ~90 % Parent was found for chain 2 M12V in this work.
A percent of parent of ~130 % Parent was found for chain 2 M12C in this work.
A percent of parent of ~92 % Parent was found for chain 2 M12S in this work.
A percent of parent of ~90 % Parent was found for chain 2 M12L in this work.
A percent of parent of ~110 % Parent was found for chain 2 M12W in this work.
A percent of parent of ~85 % Parent was found for chain 2 M12T in this work.
A percent of parent of ~90 % Parent was found for chain 2 M12H in this work.
A percent of parent of ~140 % Parent was found for chain 2 M12K in this work.
A percent of parent of ~87 % Parent was found for chain 2 M12N in this work.
A percent of parent of ~90 % Parent was found for chain 2 M12P in this work.
A percent of parent of ~88 % Parent was found for chain 2 M12Q in this work.
A percent of parent of ~100 % Parent was found for chain 2 M12F in this work.
A percent of parent of ~85 % Parent was found for chain 2 M12I in this work.
A percent of parent of ~67 % Parent was found for chain 2 M12A in this work.
A percent of parent of ~72 % Parent was found for chain 2 M12G in this work.
A percent of parent of ~110 % Parent was found for chain 2 M12E in this work.
A percent of parent of ~130 % Parent was found for chain 2 M12D in this work.

Variants of: B1
Assay: as above
Remark: another data set of the same source
A percent of parent of ~15 % Parent was found for chain 2 C9E in this work.
A percent of parent of ~50 % Parent was found for chain 2 C9W in this work.
A percent of parent of ~15 % Parent was found for chain 2 C9T in this work.
A percent of parent of ~25 % Parent was found for chain 2 C9A in this work.
A percent of parent of ~25 % Parent was found for chain 2 C9Q in this work.
A percent of parent of ~13 % Parent was found for chain 2 C9L in this work.
A percent of parent of ~15 % Parent was found for chain 2 C9N in this work.
A percent of parent of ~20 % Parent was found for chain 2 C9F in this work.
A percent of parent of ~13 % Parent was found for chain 2 C9M in this work.
A percent of parent of ~47 % Parent was found for chain 2 C9K in this work.
A percent of parent of ~55 % Parent was found for chain 2 C9Y in this work.
A percent of parent of ~28 % Parent was found for chain 2 C9D in this work.
A percent of parent of ~13 % Parent was found for chain 2 C9G in this work.
A percent of parent of ~13 % Parent was found for chain 2 C9V in this work.
A percent of parent of ~13 % Parent was found for chain 2 C9S in this work.
A percent of parent of ~15 % Parent was found for chain 2 C9I in this work.
A percent of parent of ~15 % Parent was found for chain 2 C9P in this work.
A percent of parent of ~17 % Parent was found for chain 2 C9H in this work.
A percent of parent of ~130 % Parent was found for chain 2 C9R in this work.

Variants of: B1
Assay: as above
Remark: another data set of the same source
A percent of parent of ~280 % Parent was found for chain 2 D8R in this work.
A percent of parent of ~150 % Parent was found for chain 2 D8W in this work.
A percent of parent of ~100 % Parent was found for chain 2 D8E in this work.
A percent of parent of ~130 % Parent was found for chain 2 D8T in this work.
A percent of parent of ~130 % Parent was found for chain 2 D8H in this work.
A percent of parent of ~140 % Parent was found for chain 2 D8I in this work.
A percent of parent of ~140 % Parent was found for chain 2 D8C in this work.
A percent of parent of ~130 % Parent was found for chain 2 D8L in this work.
A percent of parent of ~120 % Parent was found for chain 2 D8A in this work.
A percent of parent of ~130 % Parent was found for chain 2 D8Y in this work.
A percent of parent of ~160 % Parent was found for chain 2 D8S in this work.
A percent of parent of ~130 % Parent was found for chain 2 D8G in this work.
A percent of parent of ~140 % Parent was found for chain 2 D8M in this work.
A percent of parent of ~220 % Parent was found for chain 2 D8K in this work.
A percent of parent of ~130 % Parent was found for chain 2 D8F in this work.
A percent of parent of ~140 % Parent was found for chain 2 D8V in this work.
A percent of parent of ~150 % Parent was found for chain 2 D8N in this work.
A percent of parent of ~160 % Parent was found for chain 2 D8P in this work.
A percent of parent of ~160 % Parent was found for chain 2 D8Q in this work.
